Results on four molecules are retold here after patent US7026292B1, “Compositions and therapeutic methods using morphogenic proteins and stimulatory factors” (Stryker Corporation, priority 1995, dated 2006).

A short description of assay [1]: Osteogenic activity of refolded E. coli-expressed constructs incorporated in a matrix. The format is in vivo. To be noted: refolded constructs from SDS gel slices incorporated in a matrix; histological examination. The source says:
Samples of the various purified constructs and various mixtures of pairs of the constructs refolded together were applied to SDS polyacrylamide gels, separated by electrophoresis, sliced, incorporated in a matrix as disclosed below, and tested for osteogenic activity.

The test system of assay [2] is FRC (fetal rat calvarial) cells. The assay is described as follows: Alkaline phosphatase (AP) activity assay in FRC cells. Type of assay: cell-based. On the procedure:
A preferred assay for testing potential MPSFs with OP-1 for osteogenic activity is the alkaline phosphatase (AP) enzymatic assay. AP is an osteoblast differentiation marker in primary osteoblastic FRC. (fetal rat calvarial) cells. The OP-1-stimulated AP activity is the result of increased steady-state AP mRNA levels as measured by Northern analysis. The procedure is generally as follows.
Primary osteoblast cell cultures were prepared from fetal rat calvaria using published procedures (M. A. Aronow et al., J. Cell Physiol., 143, pp. 213–221 (1990); T. K. McCarthy et al., J. Bone Miner. Res., 3, pp. 401–8 (1988)). Briefly, cells were harvested by sequential collagenase digestions of the calvarium and cells from digestions III to V were pooled. Fetal rat calvaria (FRC) cells were plated in complete medium (MEM, alpha; GIBCO/BRL, Grand Island, N.Y.) containing 10% fetal bovine serum, vitamin C (100 μg/ml), and antibiotics (100 U/ml penicillin, and […]). Cultures were incubated at 37° C. with 95% air/5% CO2 for several days to reach confluence. Cells were then subcultured for experimentations.
FRC cells were subcultured in 48-well plates (COSTAR, Cambridge, Mass.) in complete MEM medium with 10% fetal bovine serum until confluent in about 4 days. Confluent cells were rinsed with Hank's balanced salt solution (HBSS) and treated with serum-free α-MEM medium (with 0.1% BSA, 100 U/ml penicillin, and […]) containing the appropriate solvent vehicle (50% acetonitrile/0.1% trifluoroacetic acid for OP-1 treatment or 0.1N acetic acid for IGFI treatment) or recombinant human OP-1, or IGFI at the concentrations indicated. Solvent vehicle concentration in the culture medium never exceeded 0.1%. At the end of treatment, cells were lysed and total cellular alkaline phosphatase activity was measured (typically after 48 hours of treatment).
Total cellular alkaline phosphatase activity was determined using a commercial assay kit (Sigma, St. Louis, Mo.). Cell lysates were prepared by aspirating the medium from the 48-well plate, rinsing the cells with ice-cold PBS, and lysing the cells with 0.05% Triton X-100 and sonication for 60 sec. Alkaline phosphatase activity in the lysates was measured in 2-amino-2-methyl-1-propanol buffer (pH 10.3) with p-nitrophenyl phosphate as substrate at 37° C. Reactions were performed in 96-well plates for 1–2 h. Following color development, reactions were terminated with 0.5N NaOH. Absorbance of the reaction was measured at 405 nm using a Hewlett Packard Genenchem automatic plate reader. Total protein level in the lysates was measured according to Bradford (M. Bradford, Anal. Biochem., 72, pp. 248–54 (1976)) using bovine serum albumin as a standard. Alkaline phosphatase activity was expressed as nmol p-nitrophenol liberated per microgram of total cellular protein. […]
At least four experimental groups were tested: control cells treated with no OP-1 or MPSF; group I cells treated with increasing concentrations of MPSF alone; […]; and group III cells, […] concentrations of the MPSF.

For assay [3] the following is noted: cited from earlier work.
The mark [4] stands for this setting: 200 nM PTH + 200 ng/ml OP-1, 48 hours (FIG. 9).

Read-outs that look alike come from different tables or passages of the source.

B1: COP5: synthetic consensus osteogenic protein, Seq. ID No. 2 (protein)
chain: LYVDFSDVGWDDWIVAPPGYQAFYCHGECPFPLADHFNSTNHAVVQTLVNSVNSKIPKACCVPTELSAISMLYLDENEKVVLKYNQEMVVEGCGCR
B1: the Osteogenic activity entry in assay [1] is recorded as “induce osteogenesis”.

B2: COP7: synthetic consensus osteogenic protein, Seq. ID No. 3 (protein)
chain: LYVDFSDVGWNDWIVAPPGYHAFYCHGECPFPLADHLNSTNHAVVQTLVNSVNSKIPKACCVPTELSAISMLYLDENEKVVLKYNQEMVVEGCGCR
Take B2: in assay [1], the Osteogenic activity result was “induce osteogenesis”.

B3: PTH: parathyroid hormone, purchased from Sigma (protein, UniProt P01270 32-115, looked up)
Parathyroid hormone: SVSEIQLMHNLGKHLNSMERVEWLRKKLQDVHNFVALGAPLAPRDAGSQRPRKKEDNVLVESHEKSLGEADKADVNVLTKAKSQ
modifications: Parathyroid hormone
notes: parathyroid hormone, purchased from Sigma
Take B3: in assay [2] (setting [4]), the “Level of AP activity relative to cells treated with OP-1 alone” value is reported as “about two-fold” and the “Level of AP activity relative to control cells” value is reported as “about five-fold”. The “MPSF function in concert with OP-1 (figure title)” value in assay [2] (AP activity in FRC cells, OP-1 200 ng/ml (FIGS. 5–10)) is “is a MPSF in concert with OP-1”. The “Effect on OP-1-induced stimulation of AP activity” value in assay [2] (PTH 25 and 100 nM + 200 ng/ml OP-1, 48 hours (FIG. 9)) is listed as “no effect”. Also, in assay [2] (PTH 25–200 nM alone, 48 hours (FIG. 9)), the “Stimulation of AP activity by PTH alone” value is given as “did not stimulate AP activity”. In addition, the “Effect of PTH on AP activity induced by the OP-1/IGF-I combination” value in assay [2] (PTH at least about 50 nM + 200 ng/ml OP-1 + 25 ng/ml IGF-1) is given as “significantly increased”.

B4: OP-1: osteogenic protein OP-1 (BMP-7), morphogenic protein of the BMP family; recombinant human OP-1 used in FRC assays (protein, UniProt P18075 293-431, looked up)
Bone morphogenetic protein 7: STGSKQRSQNRSKTPKNQEALRMANVAENSSSDQRQACKKHELYVSFRDLGWQDWIIAPEGYAAYYCEGECAFPLNSYMNATNHAIVQTLVHFINPETVPKPCCAPTQLNAISVLYFDDSSNVILKKYRNMVVRACGCH
In the case of B4, the Osteogenic activity result in assay [3] (deglycosylated protein, about 27 kD) is reported as “has osteogenic activity”; in assay [3] (native 30–35 kD protein in the reduced state) it was “no detectable osteogenic activity”. For the same molecule, in assay [2] (OP-1 500 ng/ml, 48 hours (FIG. 2)), the “Stimulation of AP activity above vehicle-treated control culture” value amounted to 1.6 fold.
